Measured values taken from US20190352644A1, “INHIBITION OF MITOCHONDRIAL HYPOXIC STRESS INDUCED RNA EDITING BY APOBEC3G CYTIDINE DEAMINASE” (Health Research, Inc., priority 2015, published 2019).

Columns and labels:
NK cells = assay: TM7SF3 C>U RNA editing in NK cells; assay type: cell-based, human; conditions: cellular crowding with hypoxia, IFN-γ 50 ng/ml
Method: The HuT78, JVM3 and NK-92 cell-lines were obtained from ATCC. Hut 78 cells were cultured in IMDM (ATCC) containing 20% Fetal Bovine serum (FBS) (Sigma-Aldrich), JVM3 cells were cultured in RPMI (ATCC) containing 10% FBS and NK-92 cells were cultured in Alpha Minimum Essential medium without ribonucleosides and deoxyribonucleosides (Life Technologies) but with 2 mM L-glutamine and 1.5 g/L sodium bicarbonate as well as 0.2 mM inositol, 0.1 mM 2-mercaptoethanol, 0.02 mM folic acid, 500 U/ml IL-2 (Aldesleukin—a kind gift from Novartis), 12.5% horse serum (ATCC) and 12.5% FBS. […]
Total RNA was isolated and reverse transcribed to generate cDNAs. […] To quantify RNA editing level, the major and minor chromatogram peak heights at putative edited nucleotides were quantified with Sequencher 5.0/5.1 software (Gene Codes, MI). […] For quantitative PCR to assess APOBEC3G and APOBEC3F gene expression, reactions using LightCycler™ 480 Probes Master and SYBR™ Green I dye were performed on a LightCycler™ 480 System (Roche). Quantification cycle (Cq) values were calculated by the instrument software using the maximum second derivative method, and the mean Cq value of duplicate PCR reactions was used for analysis.

[1] = system: monocyte enriched peripheral blood mononuclear cells (MEPs); assay: SDHB c.136C>U RNA editing in interferon-treated MEPs (RT-PCR); assay type: cell-based, human; conditions: normoxic or hypoxic MEPs, 24 hours; IFN1 600 U per ml, IFNγ 200 U per ml; vs untreated
Source text: The TLA-HEK293T™ 293T human embryonic kidney cell-line was obtained from Open Biosystems® (Huntsville, Ala.). Peripheral blood mononuclear cells of anonymous platelet donors were isolated from peripheral blood in Trima Accel™ leukoreduction system chambers (Terumo BCT®, Lakewood, Colo.) after thrombocytapheresis, in accordance with a protocol approved by the institutional review board of Roswell Park Cancer Institute. A density gradient centrifugation method using polysucrose-containing Lymphocyte Separation Medium (Mediatech®, Manassas, Va.) was used for PBMC isolation. […]
For hypoxia, cells were cultured under 1% O2, 5% CO2 and 94% N2 in an Xvivo™ System (Biospherix®, Lacona, N.Y.). […] Differential viability of MEPs after 1-day culture in normoxia versus hypoxia was not observed as evaluated by Trypan blue stain. […]
SDHB gene expression and c.136C>U RNA editing was quantified by RT-PCR. […]

B1: IFNγ: Human IFNγ (PBL Assay Science; PeproTech in Example 3) (protein, UniProt P01579 24-161, looked up)
Interferon gamma: QDPYVKEAENLKKYFNAGHSDVADNGTLFLGILKNWKEESDRKIMQSQIVSFYFKLFKNFKDDQSIQKSVETIKEDMNVKFFNSNKKKRDDFEKLTNYSVTDLNVQRKAIHELIQVMAELSPAAKTGKRKRSQMLFRG
For B1, the “RNA editing in TM7SF3” value (NK cells) was “did not further increase” and the “increase of SDHB c.136C>U RNA editing level” value [1] was about 3 fold.
